Starred links: 1 amine or outer side, 2 acyl side, 3 side chain; linkers in the order of their positions; H or OH if unused. Non-standard residues stand in square brackets, D forms with d. Groups on a side chain read outwards from the residue. No end group written: not given here. *: point of attachment. C20 diacid = O=C(O)CCCCCCCCCCCCCCCCCCC(=O)*; C18 diacid = O=C(O)CCCCCCCCCCCCCCCCC(=O)*; αMePhe(2-F) = C[C@](N)(Cc1ccccc1F)C(=O)O; γGlu = O=C(O)[C@H](CCC(=O)[*:2])N[*:1]; 4Pal = N[C@@H](Cc1ccncc1)C(=O)O; αMeL = CC(C)C[C@](C)(N)C(=O)O; AEEA = NCCOCCOCC(=O)O; Aib = CC(C)(N)C(=O)O
Legend:
[1] = molecular target: human glucagon receptor (human), P47871; assay: SPA, displacement of [125I]-Gcg from hGcgR membranes, 0.1% bacitracin
[2] = molecular target: T1, human glucose-dependent insulinotropic polypeptide (GIP) receptor (human), P48546; assay: SPA, displacement of [125I]-GIP from hGIPR membranes, 0.1% bacitracin
T1 chain: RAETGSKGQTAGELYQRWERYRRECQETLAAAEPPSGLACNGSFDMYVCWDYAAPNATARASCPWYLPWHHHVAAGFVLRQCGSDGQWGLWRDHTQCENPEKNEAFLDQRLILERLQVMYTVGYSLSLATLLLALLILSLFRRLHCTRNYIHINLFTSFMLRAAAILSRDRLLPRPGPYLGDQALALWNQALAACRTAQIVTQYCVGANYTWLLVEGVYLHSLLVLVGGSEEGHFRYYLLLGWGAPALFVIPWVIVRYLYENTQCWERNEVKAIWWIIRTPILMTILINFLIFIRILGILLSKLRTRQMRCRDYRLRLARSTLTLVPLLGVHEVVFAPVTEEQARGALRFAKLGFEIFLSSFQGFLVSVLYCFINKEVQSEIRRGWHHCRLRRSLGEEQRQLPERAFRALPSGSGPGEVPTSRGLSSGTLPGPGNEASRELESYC

Sequence of human glucagon receptor (human), P47871 (P47871 26-477): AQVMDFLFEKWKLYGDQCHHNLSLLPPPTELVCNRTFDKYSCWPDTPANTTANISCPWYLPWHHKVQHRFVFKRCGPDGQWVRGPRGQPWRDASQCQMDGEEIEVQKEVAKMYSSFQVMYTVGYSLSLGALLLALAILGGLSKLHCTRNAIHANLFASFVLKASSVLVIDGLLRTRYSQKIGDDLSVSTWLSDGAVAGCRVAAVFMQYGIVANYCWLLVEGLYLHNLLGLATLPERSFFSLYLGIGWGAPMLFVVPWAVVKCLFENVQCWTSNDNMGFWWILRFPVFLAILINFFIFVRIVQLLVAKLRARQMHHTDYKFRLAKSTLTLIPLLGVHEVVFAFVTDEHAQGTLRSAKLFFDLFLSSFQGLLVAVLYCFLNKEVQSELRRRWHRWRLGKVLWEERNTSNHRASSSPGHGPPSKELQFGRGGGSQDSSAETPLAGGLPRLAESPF

B1: Example 100 (peptide)
peptide: Y[Aib]EGTFISDYSI[αMeL]LDKIHQ[Aib]EFVE[4Pal]K([AEEA-AEEA-γGlu-C20 diacid])LEGGPSSGAPPPS-NH2
modifications: N-terminus assumed
SMILES: CC[C@H](C)[C@H](NC(=O)[C@H](CCCCN)NC(=O)[C@H](CC(=O)O)NC(=O)[C@H](CC(C)C)NC(=O)[C@](C)(CC(C)C)NC(=O)[C@@H](NC(=O)[C@H](CO)NC(=O)[C@H](Cc1ccc(O)cc1)NC(=O)[C@H](CC(=O)O)NC(=O)[C@H](CO)NC(=O)[C@@H](NC(=O)[C@H](Cc1ccccc1)NC(=O)[C@@H](NC(=O)CNC(=O)[C@H](CCC(=O)O)NC(=O)C(C)(C)NC(=O)[C@@H](N)Cc1ccc(O)cc1)[C@@H](C)O)[C@@H](C)CC)[C@@H](C)CC)C(=O)N[C@@H](Cc1c[nH]cn1)C(=O)N[C@@H](CCC(N)=O)C(=O)NC(C)(C)C(=O)N[C@@H](CCC(=O)O)C(=O)N[C@@H](Cc1ccccc1)C(=O)N[C@H](C(=O)N[C@@H](CCC(=O)O)C(=O)N[C@@H](Cc1ccncc1)C(=O)N[C@@H](CCCCNC(=O)COCCOCCNC(=O)COCCOCCNC(=O)CC[C@H](NC(=O)CCCCCCCCCCCCCCCCCCC(=O)O)C(=O)O)C(=O)N[C@@H](CC(C)C)C(=O)N[C@@H](CCC(=O)O)C(=O)NCC(=O)NCC(=O)N1CCC[C@H]1C(=O)N[C@@H](CO)C(=O)N[C@@H](CO)C(=O)NCC(=O)N[C@@H](C)C(=O)N1CCC[C@H]1C(=O)N1CCC[C@H]1C(=O)N1CCC[C@H]1C(=O)N[C@@H](CO)C(N)=O)C(C)C
[1]
  Ki: 572 nM
[2]
  Ki: 0.0674 nM

B2: Example 94 (peptide)
peptide: Y[Aib]EGT[αMePhe(2-F)]ISDYSIALDKIHQ[Aib]EFVNYK([AEEA-AEEA-γGlu-C18 diacid])LAGGPSSGAPPPS-NH2
modifications: N-terminus assumed
SMILES: CC[C@H](C)[C@H](NC(=O)[C@H](CO)NC(=O)[C@H](Cc1ccc(O)cc1)NC(=O)[C@H](CC(=O)O)NC(=O)[C@H](CO)NC(=O)[C@@H](NC(=O)[C@](C)(Cc1ccccc1F)NC(=O)[C@@H](NC(=O)CNC(=O)[C@H](CCC(=O)O)NC(=O)C(C)(C)NC(=O)[C@@H](N)Cc1ccc(O)cc1)[C@@H](C)O)[C@@H](C)CC)C(=O)N[C@@H](C)C(=O)N[C@@H](CC(C)C)C(=O)N[C@@H](CC(=O)O)C(=O)N[C@@H](CCCCN)C(=O)N[C@H](C(=O)N[C@@H](Cc1c[nH]cn1)C(=O)N[C@@H](CCC(N)=O)C(=O)NC(C)(C)C(=O)N[C@@H](CCC(=O)O)C(=O)N[C@@H](Cc1ccccc1)C(=O)N[C@H](C(=O)N[C@@H](CC(N)=O)C(=O)N[C@@H](Cc1ccc(O)cc1)C(=O)N[C@@H](CCCCNC(=O)COCCOCCNC(=O)COCCOCCNC(=O)CC[C@H](NC(=O)CCCCCCCCCCCCCCCCC(=O)O)C(=O)O)C(=O)N[C@@H](CC(C)C)C(=O)N[C@@H](C)C(=O)NCC(=O)NCC(=O)N1CCC[C@H]1C(=O)N[C@@H](CO)C(=O)N[C@@H](CO)C(=O)NCC(=O)N[C@@H](C)C(=O)N1CCC[C@H]1C(=O)N1CCC[C@H]1C(=O)N1CCC[C@H]1C(=O)N[C@@H](CO)C(N)=O)C(C)C)[C@@H](C)CC
[1]
  Ki: 114 nM
[2]
  Ki: 0.031 nM

B3: Example 5 (peptide)
peptide: Y[Aib]EGTFISDYSI[αMeL]LDKIHQ[Aib]DFVEYK([AEEA-AEEA-γGlu-C20 diacid])LEGGPSSGAPPPS-NH2
modifications: N-terminus assumed
SMILES: CC[C@H](C)[C@H](NC(=O)[C@H](CCCCN)NC(=O)[C@H](CC(=O)O)NC(=O)[C@H](CC(C)C)NC(=O)[C@](C)(CC(C)C)NC(=O)[C@@H](NC(=O)[C@H](CO)NC(=O)[C@H](Cc1ccc(O)cc1)NC(=O)[C@H](CC(=O)O)NC(=O)[C@H](CO)NC(=O)[C@@H](NC(=O)[C@H](Cc1ccccc1)NC(=O)[C@@H](NC(=O)CNC(=O)[C@H](CCC(=O)O)NC(=O)C(C)(C)NC(=O)[C@@H](N)Cc1ccc(O)cc1)[C@@H](C)O)[C@@H](C)CC)[C@@H](C)CC)C(=O)N[C@@H](Cc1c[nH]cn1)C(=O)N[C@@H](CCC(N)=O)C(=O)NC(C)(C)C(=O)N[C@@H](CC(=O)O)C(=O)N[C@@H](Cc1ccccc1)C(=O)N[C@H](C(=O)N[C@@H](CCC(=O)O)C(=O)N[C@@H](Cc1ccc(O)cc1)C(=O)N[C@@H](CCCCNC(=O)COCCOCCNC(=O)COCCOCCNC(=O)CC[C@H](NC(=O)CCCCCCCCCCCCCCCCCCC(=O)O)C(=O)O)C(=O)N[C@@H](CC(C)C)C(=O)N[C@@H](CCC(=O)O)C(=O)NCC(=O)NCC(=O)N1CCC[C@H]1C(=O)N[C@@H](CO)C(=O)N[C@@H](CO)C(=O)NCC(=O)N[C@@H](C)C(=O)N1CCC[C@H]1C(=O)N1CCC[C@H]1C(=O)N1CCC[C@H]1C(=O)N[C@@H](CO)C(N)=O)C(C)C
[1]
  Ki: 619 nM
[2]
  Ki: 0.0771 nM

B4: Example 99 (peptide)
peptide: Y[Aib]EGT[αMePhe(2-F)]ISDYSIALDKIHQ[Aib]DFVEYK([AEEA-AEEA-γGlu-C20 diacid])LEGGPSSGAPPPS-NH2
modifications: N-terminus assumed
SMILES: CC[C@H](C)[C@H](NC(=O)[C@H](CO)NC(=O)[C@H](Cc1ccc(O)cc1)NC(=O)[C@H](CC(=O)O)NC(=O)[C@H](CO)NC(=O)[C@@H](NC(=O)[C@](C)(Cc1ccccc1F)NC(=O)[C@@H](NC(=O)CNC(=O)[C@H](CCC(=O)O)NC(=O)C(C)(C)NC(=O)[C@@H](N)Cc1ccc(O)cc1)[C@@H](C)O)[C@@H](C)CC)C(=O)N[C@@H](C)C(=O)N[C@@H](CC(C)C)C(=O)N[C@@H](CC(=O)O)C(=O)N[C@@H](CCCCN)C(=O)N[C@H](C(=O)N[C@@H](Cc1c[nH]cn1)C(=O)N[C@@H](CCC(N)=O)C(=O)NC(C)(C)C(=O)N[C@@H](CC(=O)O)C(=O)N[C@@H](Cc1ccccc1)C(=O)N[C@H](C(=O)N[C@@H](CCC(=O)O)C(=O)N[C@@H](Cc1ccc(O)cc1)C(=O)N[C@@H](CCCCNC(=O)COCCOCCNC(=O)COCCOCCNC(=O)CC[C@H](NC(=O)CCCCCCCCCCCCCCCCCCC(=O)O)C(=O)O)C(=O)N[C@@H](CC(C)C)C(=O)N[C@@H](CCC(=O)O)C(=O)NCC(=O)NCC(=O)N1CCC[C@H]1C(=O)N[C@@H](CO)C(=O)N[C@@H](CO)C(=O)NCC(=O)N[C@@H](C)C(=O)N1CCC[C@H]1C(=O)N1CCC[C@H]1C(=O)N1CCC[C@H]1C(=O)N[C@@H](CO)C(N)=O)C(C)C)[C@@H](C)CC
[1]
  Ki: 174 nM
[2]
  Ki: 0.0341 nM
